Measurements as given in US12611443B2, “Methods and compositions related to therapeutic peptides for cancer therapy” (THE UNIVERSITY OF CHICAGO, priority 2018, dated 2026).
Entries after “also recorded” stand apart in the source; their conditions may differ.

T1: ELANE (Homo sapiens, UniProt P08246)
T1 sequence (P08246 30-267): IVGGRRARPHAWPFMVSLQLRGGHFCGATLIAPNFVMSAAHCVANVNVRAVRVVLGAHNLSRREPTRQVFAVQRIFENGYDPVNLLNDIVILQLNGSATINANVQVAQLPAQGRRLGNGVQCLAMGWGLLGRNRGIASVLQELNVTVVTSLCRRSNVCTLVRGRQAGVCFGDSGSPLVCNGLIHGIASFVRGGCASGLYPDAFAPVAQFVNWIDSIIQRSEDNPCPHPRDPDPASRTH

B1: ECP: eosinophil cationic protein, a pore-forming protein (protein)
chain: RPPQFTRAQWFAIQHISLNPPRCTIAMRAINNYRWRCKNQNTFLRTTFANVVNVCGNQSIRCPHNRTLNNCHRSRFRVPLLHCDLINPGAQNISNCTYADRPGRRFYVVACDNRDPRDSPRYPVVPVHLDTTI
B2: C1-2: hCD95 C-terminal peptide aa 221-331 mimicking ELANE cleavage at both sites; death domain containing fragment (protein)
chain: AINLSDVDLSKYITTIAGVMTLSQVKGFVRKNGVNEAKIDEIKNDNVQDTAEQKVQLLRNWHQLHGKKEAYDTLIKDLKKANLCTLAEKIQTIILKDITSDSENSNFRNEI
B3: C peptide: C-terminal CD95 peptide containing both cleavage sites (aa. 212-335); Tet-on C printed as aa. 157-335 (protein)
chain: SPTLNPETVAINLSDVDLSKYITTIAGVMTLSQVKGFVRKNGVNEAKIDEIKNDNVQDTAEQKVQLLRNWHQLHGKKEAYDTLIKDLKKANLCTLAEKIQTIILKDITSDSENSNFRNEIQSLV

Legend:
[1] = target: T1, ELANE; assay: ELANE activity assay with ECP (chromogenic substrate); type: biochemical; conditions: type II allosteric activator
Procedure: ELANE activity assays. Catalytic activity was measured using the chromogenic substrate N-Methoxysuccinyl-Ala-Ala-Pro-Val p-nitroanilide (Sigma, 100 μg/mL) according to manufacturer's protocol. Absorbance was measured at 405 nm using an accuSkan GO UV/Vis microplate spectrophotometer (ThermoFisher Scientific). For inactivation, ELANE was incubated with PMSF (1 mM, Sigma) or A1AT (42 nM, Athens Research & Technology) for 2 h. Residual PMSF was eliminated with a PD-10 desalting column (GE Healthcare Life). To monitor the effect of ECP on ELANE activity, ELANE (10 nM) was incubated with various doses of ECP (0-180 nM) at various substrate concentrations (0-1.7 mM).
Statistics. With the exception of proteomics studies, statistical significance was determined with the Student's two-tailed, unpaired t-test. Linear regression, Michaelis-Menten, and hyperbolic curve fittings were performed using Prism v.7 software.

[2] = tested on: MDA-MB-231 cells; assay: Cell viability of MDA-MB-231 cells treated with purified ELANE or ECP; type: cell-based, human
Procedure: (§1) In vitro cell viability assays. […] Luminescence was measured using a Victor X3 luminometer (PerkinElmer).

[3] = tested on: Human monocyte-derived macrophages (HMDMs); assay: Cell viability of HMDMs treated with purified ELANE or ECP; type: cell-based
Procedure: Primary human blood-derived cells.
as §1

[4] = tested on: cancer cells; assay: CD95 protein overexpression in cancer cells, viability in absence of ELANE (calcein-AM); type: cell-based, human; conditions: for cancer cell death/toxicity on expression in the absence of ELANE: transient overexpression
Procedure: FIGS. 1A-1K. ELANE cleaves CD95 to selectively kill cancer cells. (A): Heatmap summary of ELANE's effects on survival, stress, and apoptosis pathways in cancer cells and healthy cells. (B-C): Cancer cells were treated with ELANE (100 nM) and CD95 cleavage was assessed by western blotting using anti-N-terminal (B) or anti-C-terminal antibodies (C). *, lower molecular weight CD95 fragment. (D): Cancer cells or non-cancer cells were transduced to overexpress CD95 proteins, and effects on ELANE-mediated apoptosis were quantified by ANXAS at 30 min. n=2/group. See FIG. 1I for transduction and CD95 over-expression. (E): Cleavage of recombinant human CD95 N-terminal (aa 1-173) or C-terminal (aa 212-335) proteins by ELANE was assessed by SDS-PAGE and Coomassie blue staining. (F): Bands from (E) were digested with trypsin and analyzed by mass spectrometry to identify putative ELANE cleavage sites (i.e., peptides with non-tryptic ends). Major non-tryptic peptides were quantified by ion chromatograms. (G): Schematic of ELANE cleavage sites in CD95. […] (H): Cleavage of recombinant peptides corresponding to aa 214-231 and aa 317-335 in CD95 by ELANE was monitored by mass spectrometry. (I): Cancer cells or non-cancer cells were treated with fluorescein-labeled ELANE for 10 min and uptake was visualized by immunofluorescence. (J): ELANE catalytic activity in cancer cell lysates following exposure to ELANE for 30 mins in the presence and absence of Dynasore (60 μM endocytosis inhibitor). Effect of Dynasore on cancer cell killing capability of ELANE (measured by calcein-AM). n=6/group. (K): Cancer cells or non-cancer cells were transduced to overexpress various CD95 proteins, and cell viability in the absence of ELANE was determined by calcein-AM. n=10/group. *, p<0.05 Student's t-test.
as §1
(§2) CD95 overexpression studies. Polycistronic adenoviral vectors were prepared to express the human and mouse CD95 sequences followed by the Encephalomyocarditis virus (EMCV) internal ribosome entry site and dTomato sequence under the control of the cytomegalovirus (CMV) promoter (VectorBuilder). Human and murine cancer cells or normal or non-cancer cells were transduced to over-express full-length CD95, N-terminal CD95 (human: aa 1-209; mouse: aa 1-204), C-terminal CD95 (human: aa 212-335; mouse: aa 204-327), or C-terminal CD95 that mimicked ELANE cleavage at site 1 (human: aa 221-335), site 2 (human: aa 212-331), or both sites (aa 221-331). Cancer cells or normal or non-cancer cells were transduced with adenoviruses at an MOI of 50-250 depending on cell type, and expression of dTomato and CD95 (human: 558814; mouse, mouse: 565130, BD Biosciences) were confirmed by flow cytometry. A vector encoding GFP (Vector Builders) was used as a control.

[5] = tested on: MDA-MB-231 tumors; assay: In vivo testing of Tet-on C1-2 transduced MDA-MB-231 tumors; design: species or system nude mouse
Procedure: FIG. 7 In vivo testing MDA-MB-231 tumor regression post C1-2 induction. (A) Tumor weight. (B) Tumor cells (millions) count (post-ficoll gradient). (C) Percent immune cells in tumors (mouse CD45+) measurement by flow cytometry.
In Vivo testing. Mammary glands of a nude mouse model were injected with 2 million Tet-on C1-2 transduced MDA-MB-231 cells. Once tumors reach approximately 80 to 100 mm3 mice are feed either a doxycycline diet or are injected intraperitoneally with doxycycline (50 mg/ml) every 5 days to induce Tet-on system. Tumor growth is monitored. Tumors are isolated and digested on day 21 post doxycycline treatment and tumor weights are measured, tumor cell numbers are counted, and CD45+ cells are measured by flow cytometry.

[6] = tested on: MCF10A cells; assay: Doxycycline-inducible Tet-on expression of C1-2 in MCF10A cells; type: cell-based; conditions: doxycycline 2 μg/mL
Procedure: (§3) FIG. 4 Inducible Expression System. Scheme of doxycycline inducible Tet-on system to express either C (aa. 157-335) or C1-2 (aa. 221-331). C1-2 (DD containing fragment) upon addition of doxycycline (both in vitro and in vivo).
(§4) FIG. 5 Confirmation of C1-2 expression and cancer cell selective killing. (A) Tet-on C or C1-2 transduced MDA-MB-231 cells were treated with 2 μg/mL doxycycline (2 μg/mL) for 24 h. Cell lysates were collected for western blot. Confirming the expression of C or C1-2 expression. (B) Tet-on C or C1-2 transduced MDA-MB-231 cells were treated with 0.2 or 2 μg/mL doxycycline for 72 h. Cell viability was measured by Calcein AM. […] (C) Tet-on C1-2 transduced MCF10A cells were treated with 2 μg/mL doxycycline. Cell viability was measured at various time points by Calcein AM.

[7] = tested on: MDA-MB-231 cells; assay: Doxycycline-inducible Tet-on expression of C or C1-2 in MDA-MB-231 cells; type: cell-based, human; conditions: for cell death/apoptosis on doxycycline-induced expression: Tet-on MDA-MB-231, doxycycline 0.2 or 2 μg/mL, 72 h, Calcein AM
Procedure: as §3, §4
FIG. 6 In vitro testing MDA-MB-231 cell death post C1-2 induction. (A) Various single colony of Tet-on C1-2 transduced MDA-MB-231 cells were treated with 2 μg/mL doxycycline (2 μg/mL) for 72 h. Cell viability was measured by Calcein AM. Different colonies have different susceptibility of death post C1-2 induction. (B) C1-2 expression of various single colony of Tet-on C1-2 transduced MDA-MB-231 cells post doxycycline treatment were measured by western blot (C), and the level at 24 h was correlated with % death (normalized by full length). […] (C) Immunoblot of C1-2 and full length (FL) CD95 expression for various colony.

[8] = tested on: human and murine cancer cells; assay: CD95 overexpression, ELANE-mediated apoptosis (ANXA5); type: cell-based; conditions: ELANE 40 nM, ANXA5 at 30 min
Procedure: FIGS. 2A-2D Overexpressing CD95 proteins accelerates cancer cell killing by ELANE. Polycistronic adenoviral vectors were prepared to express the human and mouse CD95 sequences followed by the Encephalomyocarditis virus (EMCV) internal ribosome entry site and dTomato sequence under the control of the cytomegalovirus (CMV) promoter. Human and murine cancer cells or non-cancer cells were transduced to over-express full-length CD95, N-terminal CD95 (human: aa 1-209; mouse: aa 1-204), or C-terminal CD95 (human: aa 212-335; mouse: aa 204-327). (A): Transduction efficiency quantified by dTomato (Left). CD95 levels in dTomato− and dTomato+ cells quantified by geometric mean (MFI) (Middle). ANXA5 levels in dTomato− and dTomato+ cells 30 min after treatment with ELANE (40 nM) (Right). Representative data for A549 cells are shown. (B-C): Quantification of transduction efficiency (B) and relative CD95 overexpression (C) for cancer cells and non-cancer cells. (D): Quantification of ANXA5 levels following ELANE treatment (40 nM, 30 min) for mouse cancer cell lines (E0771, B16F10). *, p<0.05 Student's t-test.
as §1, §2

Row | Molecule | increase of ELANE catalytic turnover (kcat) [1] [fold] | killing at concentration present in PMN media, alone ([2]; ECP 0.05 μg/mL) | effect on killing capability of ELANE ([2]; ELANE 0.25 μg/mL and ECP 0.05 μg/mL) | cell viability, purified protein ([2]; MDA-MB-231) | cell viability, purified protein [3] | killing mechanism induced by expression ([4]; MDA-MB-231 cells) | cancer cell death/toxicity on expression in the absence of ELANE [4] | cancer cell death/toxicity on expression in the absence of ELANE ([4]; listed as aa. 221-331 of SEQ ID NO:1) | tumor growth after doxycycline induction ([5]; doxycycline IP or through the food) | CD45+ immune cells in tumors ([5]; flow cytometry) | cell death/apoptosis on doxycycline-induced expression [6] | selective killing of cancer cells by expression ([7]; FIG. 5A-5C) | cell death/apoptosis on doxycycline-induced expression [7] | correlation of expression level with extent of apoptosis/death ([7]; different colonies of MDA-MB-231 cells) | effect of overexpression on ELANE-mediated killing [8] | effect of overexpression on ELANE-mediated killing ([8]; listed as aa. 212-335 of SEQ ID NO:1) | cell death/apoptosis on doxycycline-induced expression ([7]; listed as C)
1 | B1 | ~12 | could not kill these cells alone | significantly enhanced the selective killing capability of ELANE | killed MDA-MB-231 cells only at doses that were also toxic to HMDMs | toxic to HMDMs | – | – | – | – | – | – | – | – | – | – | – | –
2 | B2 | – | – | – | – | – | induced the same killing mechanism as treating these cells with ELANE | toxic | induced cancer cell death in the absence of ELANE | induced MDA-MB-231 tumor regression; also recorded: lessened tumor growth | increased the number of CD45^+ immune cells in tumors | failed to induce apoptosis; also recorded: did not cause cell death | can selectively kill cancer cells | induction of cell death in MDA-MB-231 cells; also recorded: underwent apoptosis; also recorded: caused MDA-MB-231 cell death | significantly and positively correlated; also recorded: correlates with MDA-MB-231 cell death | – | – | –
3 | B3 | – | – | – | – | – | – | not toxic | – | – | – | – | – | did not | – | accelerated ELANE-mediated killing in human cancer cells | accelerated ELANE-mediated killing in both human and murine cancer cells | not C caused MDA-MB-231 cell death
